# Data from the supplement of paper PMC10567573.
# B1: KCNK9 (parent)
# chain: CFITLTTIGFGDYVALQTKGALQK
# Variants of: B1
# Assay: protein stability index of a GFP-peptide fusion (GPS, HEK-293T) (PSI 1-6); higher = more stable
# Conditions: c terminus: a fixed tail appended
# 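Note: lentivirally expressed fusions sorted by FACS into six bins by GFP to DsRed ratio, PSI derived from sequencing read proportions per bin multiplied by bin number.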
row,Variant,protein stability index
1,CFITLTTIGFMDYVALQTKGALQK,1.85
2,CFITLTTIGFTDYVALQTKGALQK,1.62
3,CFITLTTIGFLDYVALQTKGALQK,3.22
4,CFITLTTIGFEDYVALQTKGALQK,3.16
5,CFITLTTIGFIDYVALQTKGALQK,2.91
6,CFITLTTIGFADYVALQTKGALQK,3.32
7,CFITLTTIGFQDYVALQTKGALQK,2.7
8,CFITLTTIGFNDYVALQTKGALQK,2.99
9,CFITLTTIGFDDYVALQTKGALQK,3.33
10,CFITLTTIGFPDYVALQTKGALQK,1.99
11,CFITLTTIGFVDYVALQTKGALQK,2.31
12,CFITLTTIGFSDYVALQTKGALQK,2.18
13,CFITLTTIGFYDYVALQTKGALQK,3.95
14,CFITLTTIGFFDYVALQTKGALQK,3.25
15,CFITLTTIGFRDYVALQTKGALQK,3.04
16,CFITLTTIGFHDYVALQTKGALQK,3.08
17,CFITLTTIGFKDYVALQTKGALQK,2.73
18,CFITLTTIGFCDYVALQTKGALQK,3.41
19,CFITLTTIGFGFYVALQTKGALQK,2.49
20,CFITLTTIGFGYYVALQTKGALQK,3.4
21,CFITLTTIGFGMYVALQTKGALQK,4.64
22,CFITLTTIGFGTYVALQTKGALQK,2.49
23,CFITLTTIGFGCYVALQTKGALQK,3.65
24,CFITLTTIGFGGYVALQTKGALQK,3.42

row,Variant,protein stability index
1,CFITLTTIGFGHYVALQTKGALQK,3.68
2,CFITLTTIGFGQYVALQTKGALQK,2.05
3,CFITLTTIGFGEYVALQTKGALQK,2.69
4,CFITLTTIGFGIYVALQTKGALQK,3.71
5,CFITLTTIGFGAYVALQTKGALQK,3.21
6,CFITLTTIGFGPYVALQTKGALQK,2.67
7,CFITLTTIGFGWYVALQTKGALQK,2.12
8,CFITLTTIGFGKYVALQTKGALQK,2.82
9,CFITLTTIGFGNYVALQTKGALQK,2.71
10,CFITLTTIGFGVYVALQTKGALQK,2.96
11,CFITLTTIGFGRYVALQTKGALQK,2.62
12,CFITLTTINFGDYVALQTKGALQK,2.02
13,CFITLTTILFGDYVALQTKGALQK,3.46
14,CFITLTTIVFGDYVALQTKGALQK,4.79
15,CFITLTTISFGDYVALQTKGALQK,1.73
16,CFITLTTIPFGDYVALQTKGALQK,1.99
17,CFITLTTIDFGDYVALQTKGALQK,2.33
18,CFITLTTIWFGDYVALQTKGALQK,2.9
19,CFITLTTIEFGDYVALQTKGALQK,1.58
20,CFITLTTIMFGDYVALQTKGALQK,2.8
21,CFITLTTIHFGDYVALQTKGALQK,2.51
22,CFITLTTIAFGDYVALQTKGALQK,3.95
23,CFITLTTIIFGDYVALQTKGALQK,2.7
24,CFITLTTIQFGDYVALQTKGALQK,2.81

row,Variant,protein stability index
1,CFITLTTICFGDYVALQTKGALQK,2.83
2,CFITLTTIFFGDYVALQTKGALQK,3.77
3,CFITLTTIKFGDYVALQTKGALQK,2.5
4,CFITLTTIYFGDYVALQTKGALQK,1.93
5,CFITLTTITFGDYVALQTKGALQK,2.21
6,CFITLTTIRFGDYVALQTKGALQK,1.36
7,CFITLTTIGFGDYVALQDKGALQK,1.76
8,CFITLTTIGFGDYVALQFKGALQK,1.72
9,CFITLTTIGFGDYVALQCKGALQK,3.43
10,CFITLTTIGFGDYVALQEKGALQK,2.28
11,CFITLTTIGFGDYVALQAKGALQK,2.8
12,CFITLTTIGFGDYVALHTKGALQK,3.57
13,CFITLTTIGFGDYVALTTKGALQK,2.08
14,CFITLTTIGFGDYVALGTKGALQK,2.38
15,CFITLTTIGFGDYVALRTKGALQK,2.83
16,CFITLTTIGFGDYVALNTKGALQK,2.33
17,CFITLTTIGFGDYVALDTKGALQK,2.17
18,CFITLTTIGFGDYVALITKGALQK,2.27
19,CFITLTTIGFGDYVALCTKGALQK,3.88
20,CFITLTTIGFGDYVALLTKGALQK,2.23
21,CFITLTTIGFGDYVALMTKGALQK,2.23
22,CFITLTTIGFGDYVALETKGALQK,2.76
23,CFITLTTIGFGDYVALWTKGALQK,2.58
24,CFITLTTIGFGDYVALPTKGALQK,3.82

row,Variant,protein stability index
1,CFITLTTIGFGDYVALFTKGALQK,3.02
2,CFITLTTIGFGDYVALKTKGALQK,2.82
3,CFITLTTIGFGDYVALYTKGALQK,3.01
4,CFITLTTIGFGDYVALVTKGALQK,3.42
5,CFITLTTIGVGDYVALQTKGALQK,2.06
6,CFITLTTIGPGDYVALQTKGALQK,2.78
7,CFITLTTIGMGDYVALQTKGALQK,2.62
8,CFITLTTIGLGDYVALQTKGALQK,2.73
9,CFITLTTIGHGDYVALQTKGALQK,2.73
10,CFITLTTIGWGDYVALQTKGALQK,2.33
11,CFITLTTIGQGDYVALQTKGALQK,1.56
12,CFITLTTIGNGDYVALQTKGALQK,1.58
13,CFITLTTIGAGDYVALQTKGALQK,2.05
14,CFITLTTIGSGDYVALQTKGALQK,1.39
15,CFITLTTIGEGDYVALQTKGALQK,2.46
16,CFITLTTIGGGDYVALQTKGALQK,2.16
17,CFITLTTIGRGDYVALQTKGALQK,1.7
18,CFITLTTIGYGDYVALQTKGALQK,2.12
19,CFITLTTIGTGDYVALQTKGALQK,2.59
20,CFITLTTIGKGDYVALQTKGALQK,1.85
21,CFITLTTIGDGDYVALQTKGALQK,2.17
22,CFITLTTIGCGDYVALQTKGALQK,2.79
